The text below walks through data of patent US8278063B2, “Methods for degrading toxic compounds” (Commonwealth Scientific and Industrial Research Organisation, priority 2007, dated 2012).

The target in one data set is MheI (Nocardioides sp., UniProt C8CP46). The data set can be described thus: Enzyme assays and determination of kinetic constants of purified MheI (HPLC). Conditions: 1-40 μM carbendazim, 200 mM sodium phosphate buffer, 22° C.
The test system of a further data set is COC(=O)Nc1nc2ccccc2[nH]1. The data set can be described thus: purified protein, by the assay type. Conditions: other: purified MheI, 1-40 μM carbendazim, 200 mM sodium phosphate buffer, 22° C.

As a reminder, the Km is the substrate concentration at which the rate is half of its maximum.

Sequence of MheI (C8CP46 whole entry): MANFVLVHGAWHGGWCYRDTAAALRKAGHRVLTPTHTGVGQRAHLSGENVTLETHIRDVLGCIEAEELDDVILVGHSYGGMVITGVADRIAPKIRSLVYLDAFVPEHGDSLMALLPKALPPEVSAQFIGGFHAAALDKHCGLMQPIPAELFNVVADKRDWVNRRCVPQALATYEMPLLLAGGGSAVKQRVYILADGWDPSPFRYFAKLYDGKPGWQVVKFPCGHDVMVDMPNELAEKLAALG
Experimental for COC(=O)Nc1nc2ccccc2[nH]1: (§1) Enzyme assays were performed in 96 well microtiter plates (Agilent catalogue number) at 22° C. The assay mixture typically contained 20 μg bovine serum albumin, 0.022 μg purified MheI and 1-40 μM carbendazim in a final volume of 200 μl of 200 mM sodium phosphate buffer. Enzymatic reaction was stopped by adding 5 μl of formic acid after 10 minutes and the initial velocities were measured using HPLC. All these assays were performed in triplicate.
Experimental for MheI: as §1

Regarding `COC(=O)Nc1nc2ccccc2[nH]1` [carbendazim], the Km on MheI turned out to be 6.1 µM.
Take MheI (Nocardioides sp. SG-4G): in the data set with COC(=O)Nc1nc2ccccc2[nH]1, the Michaelis-Menten constant (Km) came to 6.1 µM and the kcat was 120 per second.
